What was measured:
Assay in all cases: SPR (BIACORE), antibody captured, FcgR analyte
[1] = target: T1, cynomolgus monkey FcγRIIa1 extracellular domain with C-terminal His-tag (cynomolgus monkey)
T1 construct: also called cyno FcgRIIa1; cynoFcγRIIa1
T1 chain: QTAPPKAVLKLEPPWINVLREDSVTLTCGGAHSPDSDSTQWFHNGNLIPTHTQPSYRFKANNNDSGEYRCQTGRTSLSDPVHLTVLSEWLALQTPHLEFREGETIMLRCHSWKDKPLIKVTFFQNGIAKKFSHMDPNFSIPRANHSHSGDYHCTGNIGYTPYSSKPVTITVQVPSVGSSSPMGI
Experimental: (§1) The kinetic analysis of interactions between these antibodies and FcγR was carried out using BIACORE® T200 or BIACORE® 4000 (GE Healthcare). HBS-EP+ (GE Healthcare) was used as the running buffer, and the measurement temperature was set to 25° C. A chip produced by immobilizing Protein A. Protein A/G or mouse anti-human IgG kappa light chain (BD Biosciences) onto a Series S Sensor Chip CM4 or CM5 (GE Healthcare) by the amine-coupling method was used. […] After the measurement, the antibody captured on the chip was washed off by allowing reaction with 10 mM glycine-HCl, pH1.5 and 25 mM NaOH so that the chip was regenerated and used repeatedly. The sensorgrams obtained as measurement results were analyzed by the 1:1 Langmuir binding model using the BIACORE® Evaluation Software to calculate the binding rate constant ka (L/mol/s) and dissociation rate constant kd (l/s), and the dissociation constant KD (mol/L) was calculated from these values. […] Regarding such interactions, KD values were calculated using the following 1:1 binding model described in BIACORE® T100 Software Handbook BR1006-48 Edition AE.
(§2) The behavior of interacting molecules according to the 1:1 binding model on BIACORE® can be described by Equation 1: Req=C·R max/(KD+C)+RI, wherein, Req is a plot of steady-state binding levels to analyte concentration. C is concentration, RI is bulk refractive index contribution in the sample, and Rmax is analyte binding capacity of the surface. When this equation is rearranged, KD can be expressed as Equation 2: KD=C·Rmax/(Req−RI)−C. KD can be calculated by substituting the values of Rmax, RI, and C into Equation 1 or Equation 2. From the current measurement conditions, RI=0, C=2 μmol/L can be used.

[2] = target: T2, cynomolgus monkey FcγRIIa2 extracellular domain with C-terminal His-tag (cynomolgus monkey)
T2 construct: also called cyno FcgRIIa2; cynoFcγRIIa2
T2 chain: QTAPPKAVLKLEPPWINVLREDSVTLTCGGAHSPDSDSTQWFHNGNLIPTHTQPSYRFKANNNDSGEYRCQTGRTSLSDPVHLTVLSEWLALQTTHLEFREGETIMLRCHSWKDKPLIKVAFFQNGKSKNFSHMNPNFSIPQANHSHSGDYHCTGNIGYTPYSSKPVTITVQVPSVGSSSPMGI
Experimental: as §1, §2

[3] = target: T3, cynomolgus monkey FcγRIIa3 extracellular domain with C-terminal His-tag (cynomolgus monkey)
T3 construct: also called cyno FcgRIIa3; cynoFcγRIIa3
T3 chain: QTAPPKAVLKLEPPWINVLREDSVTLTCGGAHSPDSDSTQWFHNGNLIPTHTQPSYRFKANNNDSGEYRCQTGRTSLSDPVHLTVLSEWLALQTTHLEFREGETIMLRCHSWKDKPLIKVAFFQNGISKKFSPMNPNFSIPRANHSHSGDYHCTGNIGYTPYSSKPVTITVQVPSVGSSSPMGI
Experimental: as §1, §2

[4] = target: T4, cynomolgus monkey FcγRIIb extracellular domain with C-terminal His-tag (cynomolgus monkey)
T4 construct: also called cyno FcgRIIb; cynoFcγRIIb
T4 chain: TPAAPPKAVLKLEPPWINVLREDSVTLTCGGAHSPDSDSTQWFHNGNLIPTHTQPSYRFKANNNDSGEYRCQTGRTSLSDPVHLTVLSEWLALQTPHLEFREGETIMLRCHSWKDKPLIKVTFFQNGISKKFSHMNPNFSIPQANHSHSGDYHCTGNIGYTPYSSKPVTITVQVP
Experimental: as §1, §2

[5] = target: T5, cynomolgus monkey FcγRIIIaS extracellular domain with C-terminal His-tag (cynomolgus monkey, UniProt Q8SPW2 21-206 at identity 1.00))
T5 construct: also called cyno FcgRIIIaS; cynoFcγRIIIaS
T5 chain: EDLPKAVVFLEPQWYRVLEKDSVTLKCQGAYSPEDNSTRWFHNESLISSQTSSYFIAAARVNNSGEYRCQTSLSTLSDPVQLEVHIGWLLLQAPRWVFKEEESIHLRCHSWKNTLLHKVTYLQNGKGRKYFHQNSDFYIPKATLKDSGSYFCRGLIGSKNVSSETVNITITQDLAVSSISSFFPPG
Experimental: as §1, §2

[6] = target: T6, human FcγRIIaH extracellular domain with C-terminal His-tag (human, UniProt P12318 34-217)
T6 construct: also called human FcgRIIaH; FcγRIIa (type H)
T6 sequence: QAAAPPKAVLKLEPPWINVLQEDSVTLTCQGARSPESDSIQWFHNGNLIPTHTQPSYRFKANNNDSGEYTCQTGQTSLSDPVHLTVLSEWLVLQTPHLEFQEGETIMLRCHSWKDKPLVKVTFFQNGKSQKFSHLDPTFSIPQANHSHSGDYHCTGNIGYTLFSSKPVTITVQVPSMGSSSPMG
Experimental: as §1, §2

[7] = target: T7, human FcγRIIaR extracellular domain with C-terminal His-tag (human, UniProt P12318 34-217)
T7 construct: also called human FcgRIIaR; FcγRIIa (type R)
T7 chain: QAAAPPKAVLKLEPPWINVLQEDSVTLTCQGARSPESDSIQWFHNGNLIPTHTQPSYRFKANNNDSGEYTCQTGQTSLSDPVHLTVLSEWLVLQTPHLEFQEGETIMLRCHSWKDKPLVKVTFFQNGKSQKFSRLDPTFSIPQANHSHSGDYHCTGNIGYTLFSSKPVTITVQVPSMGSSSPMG
Experimental: as §1, §2

[8] = target: T8, human FcγRIIb extracellular domain with C-terminal His-tag (human, UniProt P31994 43-217)
T8 construct: also called human FcgRIIb
T8 sequence: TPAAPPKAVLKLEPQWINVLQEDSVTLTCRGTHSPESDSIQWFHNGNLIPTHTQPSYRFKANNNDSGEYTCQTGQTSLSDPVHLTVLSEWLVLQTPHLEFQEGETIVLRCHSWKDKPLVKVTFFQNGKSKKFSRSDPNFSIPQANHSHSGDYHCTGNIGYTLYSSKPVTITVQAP
Experimental: as §1, §2

[9] = target: T9, human FcγRIIIaV extracellular domain with C-terminal His-tag (human, UniProt P08637 17-208)
T9 construct: also called human FcgRIIIaV
Experimental: as §1, §2

T9 sequence (P08637 17-208 F176V): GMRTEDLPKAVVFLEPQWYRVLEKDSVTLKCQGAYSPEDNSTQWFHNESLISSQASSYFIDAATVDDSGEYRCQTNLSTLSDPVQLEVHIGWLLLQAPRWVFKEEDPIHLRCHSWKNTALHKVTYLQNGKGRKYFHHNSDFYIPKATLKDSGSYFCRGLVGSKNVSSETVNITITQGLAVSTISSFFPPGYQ

Kd [1]: 800 nM
Kd [2]: 730 nM
Kd [3]: 1200 nM
Kd [4]: 250 nM
Kd [5]: 1100 nM
Kd [6]: 210 nM
Kd [7]: 200 nM
Kd [8]: 950 nM
Kd [9]: 1800 nM
B1: M103205H795-MY533/M103202L889-SK1 (antibody, human IgG1, kappa)
heavy: QVTLKESGPVLVKPTETLTLTCTVSGIDLSHDDISWVRQAPGKGLEWVGIISYAGSTYYASWAKGRLTISKDTSKNQVVLTMTNMDPVDTATYYCARGVPAYSHGGDLWGQGTLVTVSSASTKGPSVFPLAPSSKSTSGGTAALGCLVKDYFPEPVTVSWNSGALTSGVHTFPAVLQSSGLYSLSSVVTVPSSSLGTQTYICNVNHKPSNTKVDKKVEPKSCDKTHTCPPCPAPEWLTGPVVFLFPPKPKDTLMISRTPEVTCVVVDVSDEDPEVKFNWYVDGVEVHNAKTKPREELYNSTYRVVSVLTVLHQDWLNGKEYKCKVSNKALPKPIEKTISKAKGQPREPQVYTLPPSREEMTKNQVSLTCLVKGFYPSDIAVEWESNGQPENNYKTTPPVLDSDGSFFLYSKLTVDKSRWQQGNVFSCSVMHEALHNHYTQKSLSLSP
light: DIVMTQSPATLSLSPGERATLSCTSSQSVYHANWLSWFQQKPGQPPKLLIYWASTLAYGVPSRFSGSGSGTDFTLTISSLQPEDAATYYCAGGYGGGRYAFGQGTKVEIKRTVAAPSVFIFPPSDEQLKSGTASVVCLLNNFYPREAKVQWKVDNALQSGNSQESVTEQDSKDSTYSLSSTLTLSKADYEKHKVYACEVTHQGLSSPVTKSFNRGEC
notes: Substitutions introduced into M103205H795-SG1, expressed with M103202L889-SK1 as light chain; EU numbering

From patent US20200317768A1 (published 2020)
